Positions of bridges follow the written chain, without caps; N, C: chain ends. Non-standard residues stand in square brackets, D forms with d.
Legend:
[1] = molecular target: T1, HIV-1 envelope protein gp41 subunit (HXB2 envelope), N-helix coiled-coil (HIV-1 (HXB2), UniProt P04578 512-856); assay: cell-based or functional assay
[2] = molecular target: T2, N36 peptide of HIV-1 gp41 (HIV-1); assay: circular dichroism thermal melt at 222 nm; 10 µM C34 peptide + 10 µM N36 in PBS pH 7.0
T2 construct: Synthetic peptide; forms the trimeric N36 coiled-coil of the N36/C34 complex

[3] = molecular target: T1, HIV-1 envelope protein gp41 subunit …; assay: cell-based or functional assay; remark: listed apart in the source
[4] = molecular target: T2, N36 peptide of HIV-1 gp41; assay: circular dichroism thermal melt of the N36/C34 variant complex

For Ac-[dK][dK]G[dA][dC][dE][dL][dL]G[dW][dE][dW][dA][dW][dL][dC][dA][dA]-NH2 (disulfide 5-16 (inferred)) [D10pep5], the “IC50, syncytia assay” value [1] was roughly 6 µM.

For Ac-[dK][dK][dK][dK]G[dA][dC][dE][dL][dL]G[dW][dE][dW][dA][dW][dL][dC][dA][dA]-NH2 (disulfide 7-18 (inferred)) [D10pep5a], the “IC50 for inhibition of syncytia formation, against D10pep5” value [1] was roughly 2 fold.

Ac-[dK][dK]G[dA][dC][dE][dA][dR][dH][dR][dE][dW][dA][dW][dL][dC][dA][dA]-NH2 (disulfide 5-16 (inferred)) [D10pep1a] was tested, and the “IC50 for inhibition of syncytia formation, against D10pep1” value [1] was roughly 2 fold.

For Ac-WMEWDAEINNYTSLIHSLIEESQNQQEKNEQELL-NH2 (Position in gp41 numbering) [C34 peptide Arg^633→Ala], the “Tm (apparent melting temperature of the N36/C34 complex)” value (“Tm” for short) [2] was 65 ° C, the “IC50 (nM) cell fusion” value [3] was 0.76 nM and the “IC50 (nM) viral entry” value [3] was 2.6 nM.

With Ac-WMEFDREINNYTSLIHSLIEESQNQQEKNEQELL-NH2 [C34 peptide Trp^631→Phe] the “Tm” value [4] was 59 ° C, the “IC50 values (nanomolar) for cell fusion” value [1] was 1.6 nM and the “IC50 values (nanomolar) for virus entry” value [1] was 3.61 nM.

For Ac-WMEWDREANNYTSLIHSLIEESQNQQEKNEQELL-NH2 (Position in gp41 numbering) [C34 peptide Ile^635→Ala], the “Tm” value [2] was 55 ° C, the “IC50 (nM) cell fusion” value [3] was 0.96 nM and the “IC50 (nM) viral entry” value [3] was 4.1 nM. The “decrease in inhibitory activity against wildtype C34” value [1] was roughly 2 fold.

With Ac-WMEGDREINNYTSLIHSLIEESQNQQEKNEQELL-NH2 (Position in gp41 numbering) [C34 peptide Trp^631→Gly] the “Tm” value [4] was 35 ° C, the “IC50 values (nanomolar) for cell fusion” value [1] was 25 nM and the “IC50 values (nanomolar) for virus entry” value [1] was 38 nM.

In the case of Ac-WMEADREINNYTSLIHSLIEESQNQQEKNEQELL-NH2 (Position in gp41 numbering) [C34 peptide Trp^631→Ala], the “Tm” value [2] is reported as 37 ° C and the “decrease in inhibitory activity against wildtype C34” value [1] is reported as roughly 30 fold.

For Ac-WMEVDREINNYTSLIHSLIEESQNQQEKNEQELL-NH2 [C34 peptide Trp^631→Val], the “Tm” value [4] was 43 ° C, the “IC50 values (nanomolar) for cell fusion” value [1] was 4.5 nM and the “IC50 values (nanomolar) for virus entry” value [1] was 13 nM.

With Ac-WMELDREINNYTSLIHSLIEESQNQQEKNEQELL-NH2 [C34 peptide Trp^631→Leu] the “Tm” value [4] was 50 ° C, the “IC50 values (nanomolar) for cell fusion” value [1] was 3.2 nM and the “IC50 values (nanomolar) for virus entry” value [1] was 5.3 nM.
